ChEMBL document CHEMBL1123197, “(beta-Chloro-alpha-aminoethyl)phosphonic acids as inhibitors of alanine racemase and D-alanine:D-alanine ligase” (J Med Chem, 1986)

Assays:
[1] = substrate: C[C@H](N)C(=O)O; assay: Km value for Alanine racemase from Pseudomonas aeruginosa
[2] = substrate: NC(CCl)P(=O)(O)O; conditions: Pseudomonas aeruginosa
Description: Km for Alanine racemase from Pseudomonas aeruginosa

B1: Alanine racemase, biosynthetic (Escherichia coli K-12), P0A6B4 (protein)
chain: MQAATVVINRRALRHNLQRLRELAPASKMVAVVKANAYGHGLLETARTLPDADAFGVARLEEALRLRAGGITKPVLLLEGFFDARDLPTISAQHFHTAVHNEEQLAALEEASLDEPVTVWMKLDTGMHRLGVRPEQAEAFYHRLTQCKNVRQPVNIVSHFARADEPKCGATEKQLAIFNTFCEGKPGQRSIAASGGILLWPQSHFDWVRPGIILYGVSPLEDRSTGADFGCQPVMSLTSSLIAVREHKAGEPVGYGGTWVSERDTRLGVVAMGYGDGYPRAAPSGTPVLVNGREVPIVGRVAMDMICVDLGPQAQDKAGDPVILWGEGLPVERIAEMTKVSAYELITRLTSRVAMKYVD
- Km [1]: 14.2 mM
- Km [2]: 8 mM
